# According to IntAct's records for PubMed 26437117:
# B1: Synaptotagmin-1 (Rattus norvegicus (Rat)), P21707 (parent)
# chain: MVSASHPEALAAPVTTVATLVPHNATEPASPGEGKEDAFSKLKQKFMNELHKIPLPPWALIAIAIVAVLLVVTCCFCVCKKCLFKKKNKKKGKEKGGKNAINMKDVKDLGKTMKDQALKDDDAETGLTDGEEKEEPKEEEKLGKLQYSLDYDFQNNQLLVGIIQAAELPALDMGGTSDPYVKVFLLPDKKKKFETKVHRKTLNPVFNEQFTFKVPYSELGGKTLVMAVYDFDRFSKHDIIGEFKVPMNTVDFGHVTEEWRDLQSAEKEEQEKLGDICFSLRYVPTAGKLTVVILEAKNLKKMDVGGLSDPYVKIHLMQNGKRLKKKKTTIKKNTLNPYYNESFSFEVPFEQIQKVQVVVTVLDYDKIGKNDAIGKVFVGYNSTGAELRHWSDMLANPRRPIAQWHTLQVEEEVDAMLAVKK
# Variants of: B1
# Details: with stx1a_mouse Stx1a
row,Variant,effect of a mutation on the interaction
1,D178A;D230A;D232A;D309A;D363A;D365A,decreasing interaction strength
